This note sets out measurements from article PMC5021285.

Values joined by “and” are separate entries in the source; they are usually repeats but may differ in a detail not shown here. Equal values may be shown once.

Experiment [1] concerns the target FgαCC8 H614A (human) (UniProt P02671). Briefly: ELISA; FgαCC8 WT, alanine mutants or BSA coated (1 μM/well); 5 μM GST-LigB12; anti-GST-HRP; relative binding (%) against WT. (An ELISA detects its analyte on a solid surface through an enzyme-linked reagent.)
Experiment [2] concerns the target FgαCC8 I613A (human) (UniProt P02671). The description is as above.
The target of experiment [3] is FgαCC8 R608A (human) (UniProt P02671). The description is as above.
Experiment [4] deals with FgαCC8 L618A (human) (UniProt P02671). The experiment is described as above.
Experiment [5] concerns the target FgαCC8 R611A (human) (UniProt P02671). Described as above.
The target in experiment [6] is His-Sumo tagged FgαCC8 (human) (UniProt P02671). Briefly: ELISA; His-Sumo FgαCC8 captured by coated anti-His antibody; GST-LigB12 0-5 μM in phosphate buffer pH 7, 150 mM NaCl; anti-GST-HRP (Fig 5A and Fig 5B).
In experiment [7] the target is FgαCC5 (human) (UniProt P02671). Briefly: ELISA; 1 μM FgαCC, FgαCC truncates or BSA coated on microtiter wells; GST-LigB12 0-3 μM, 1 h 37°C; anti-GST-HRP; KD = EC50 of a dose-response fit.
Experiment [8] addresses FgαCC3 (human) (UniProt P02671). Described as above.
Experiment [9] deals with FgαCC2 (human) (UniProt P02671). Described as above.
For experiment [10], the target named is FgαCC8 (C-terminal 23 amino acids of the fibrinogen α chain) (human) (UniProt P02671). The description is as above.
Experiment [11] deals with FgαCC (C-terminal region of the fibrinogen αC domain) (human) (UniProt P02671). Described as above.
In experiment [12] the target is His-Sumo tagged FgαCC8 (human) (UniProt P02671). Briefly: ELISA; His-Sumo FgαCC8 captured by coated anti-His antibody; GST-LigB12 0-5 μM in phosphate buffer pH 6, 75 mM NaCl; anti-GST-HRP.
Experiment [13] has as its target Factor XIII (FXIII) (UniProt P00488). Briefly: ELISA; FXIII, FgαCC8 (positive control) or BSA coated; GST-LigB12 0-3 μM; anti-GST-HRP.
Sequence of UniProt P00488 (P00488 whole entry, chain 1 of 2, the tested form may be a part): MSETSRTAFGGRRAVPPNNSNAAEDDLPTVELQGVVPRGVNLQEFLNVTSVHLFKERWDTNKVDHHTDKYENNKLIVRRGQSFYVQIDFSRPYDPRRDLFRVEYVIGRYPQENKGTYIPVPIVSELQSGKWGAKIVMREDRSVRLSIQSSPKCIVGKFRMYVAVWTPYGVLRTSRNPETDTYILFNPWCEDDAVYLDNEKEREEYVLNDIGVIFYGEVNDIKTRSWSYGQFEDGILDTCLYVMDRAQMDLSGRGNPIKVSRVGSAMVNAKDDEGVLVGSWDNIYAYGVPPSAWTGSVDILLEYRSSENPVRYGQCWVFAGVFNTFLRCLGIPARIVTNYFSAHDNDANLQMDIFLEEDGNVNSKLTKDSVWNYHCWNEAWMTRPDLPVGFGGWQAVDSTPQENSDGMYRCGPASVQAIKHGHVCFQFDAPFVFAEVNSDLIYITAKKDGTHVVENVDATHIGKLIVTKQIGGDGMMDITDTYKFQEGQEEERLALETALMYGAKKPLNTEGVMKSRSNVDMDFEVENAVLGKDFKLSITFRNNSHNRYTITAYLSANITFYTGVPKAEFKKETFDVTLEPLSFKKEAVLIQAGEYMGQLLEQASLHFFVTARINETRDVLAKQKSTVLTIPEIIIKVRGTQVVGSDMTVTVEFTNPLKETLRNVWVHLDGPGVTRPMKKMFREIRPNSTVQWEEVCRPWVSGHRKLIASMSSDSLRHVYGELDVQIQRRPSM
Sequence of UniProt P00488 (P05160 21-661, chain 2 of 2, further chain): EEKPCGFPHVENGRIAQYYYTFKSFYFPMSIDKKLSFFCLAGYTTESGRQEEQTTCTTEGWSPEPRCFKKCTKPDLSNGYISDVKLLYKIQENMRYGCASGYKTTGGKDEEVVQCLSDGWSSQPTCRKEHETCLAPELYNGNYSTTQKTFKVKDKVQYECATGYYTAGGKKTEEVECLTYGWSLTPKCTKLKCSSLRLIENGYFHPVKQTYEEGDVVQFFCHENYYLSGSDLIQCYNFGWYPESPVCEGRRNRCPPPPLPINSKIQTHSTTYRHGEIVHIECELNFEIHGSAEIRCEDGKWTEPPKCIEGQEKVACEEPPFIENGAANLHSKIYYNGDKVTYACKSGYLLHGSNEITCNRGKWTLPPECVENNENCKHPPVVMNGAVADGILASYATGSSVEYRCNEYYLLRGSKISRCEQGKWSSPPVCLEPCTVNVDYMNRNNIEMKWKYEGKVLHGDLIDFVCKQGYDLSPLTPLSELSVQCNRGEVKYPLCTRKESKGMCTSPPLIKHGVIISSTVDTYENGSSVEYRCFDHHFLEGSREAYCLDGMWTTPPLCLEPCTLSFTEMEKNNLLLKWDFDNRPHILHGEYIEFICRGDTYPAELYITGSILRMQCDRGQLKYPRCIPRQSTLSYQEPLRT
For experiment [14], the target named is His-Sumo tagged FgαCC8 (human) (UniProt P02671). Briefly: ELISA; His-Sumo FgαCC8 captured by coated anti-His antibody; GST-LigB12 0-5 μM in phosphate buffer pH 6, 1200 mM NaCl; anti-GST-HRP.
Experiment [15] has the same target. Briefly: ELISA; His-Sumo FgαCC8 captured by coated anti-His antibody; GST-LigB12 0-5 μM in phosphate buffer pH 5, 150 mM NaCl; anti-GST-HRP.
For experiment [16] the target is unchanged. Briefly: ELISA; His-Sumo FgαCC8 captured by coated anti-His antibody; GST-LigB12 0-5 μM in phosphate buffer pH 7, 1200 mM NaCl; anti-GST-HRP.
Experiment [17] has the same target. Briefly: ELISA; His-Sumo FgαCC8 captured by coated anti-His antibody; GST-LigB12 0-5 μM in phosphate buffer pH 6, 150 mM NaCl; anti-GST-HRP.
Experiment [18] has the same target. Briefly: ELISA; His-Sumo FgαCC8 captured by coated anti-His antibody; GST-LigB12 0-5 μM in phosphate buffer pH 7, 75 mM NaCl; anti-GST-HRP.
The target in experiment [19] is GST tagged FgαCC8, P02671-2. Briefly: ELISA. To be noted: 5 μM GST tagged FgαCC8 added to coated wells (1 μM/well); parent: est. 100; read off a plot.
Experiment [20] concerns the target LigB12, tag free (12th Ig-like domain of Leptospira immunoglobulin-like protein B) (Leptospira interrogans serovar Pomona). Briefly: SPR; Biacore 3000; tag free LigB12 amine-coupled to a CM5 chip (1000 RU); FgαCC truncates 0-3 μM in PBS, 30 μL/min, 25°C; 1:1 Langmuir model. A general note: In SPR one partner is held on a chip, and binding of the other changes the refractive index at the surface.

For experiment [21], the target named is LigB12 D1061N (Leptospira interrogans serovar Pomona). Briefly: ELISA; LigB12 WT, mutants or BSA coated (1 μM/well); 5 μM GST-FgαCC8; anti-GST-HRP; relative binding (%) against WT.
Experiment [22] addresses D1066A and E1088A. Described as above.
Experiment [23] addresses LigB12 F1054A (Leptospira interrogans serovar Pomona). Described as above.
For experiment [24], the target named is LigB12 A1065K (Leptospira interrogans serovar Pomona). The description is as above.
Experiment [25] deals with Factor XIII (FXIII) (UniProt P00488). Briefly: ELISA; inhibition: FXIII coated; tag free LigB12 or LigB4 0-10 μM, 1 h 37°C, unbound washed off; then 1 μM His-Sumo FgαCC, 1 h 37°C; anti-His-HRP; binding relative to wells without LigB.
For experiment [26], the target named is T1, GST tagged LigB12 (12th Ig-like domain of Leptospira immunoglobulin-like protein B).
T1 chain: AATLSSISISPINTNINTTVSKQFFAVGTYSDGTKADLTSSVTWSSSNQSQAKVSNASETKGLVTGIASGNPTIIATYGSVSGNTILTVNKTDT
Briefly: ELISA. To be noted: chain shown with the change; 5 μM GST tagged LigB12 added to coated wells (1 μM/well); parent: est. 100; read off a plot.

For orientation: Kd means the free concentration of one partner at which half of the binding sites on the other are occupied at equilibrium, for simple one-to-one binding. Lower therefore signals tighter binding. Turning to “GST tagged LigB12 (12th Ig-like domain of Leptospira immunoglobulin-like protein B) (domain or fragment)”, the percent reduction of binding relative to WT in experiment [1] was 50%; in experiment [2], 47%; in experiment [3] it was more than 60%; in [4] it was 12%; in experiment [5], more than 60%. Further, the Kd in experiment [6] is 820 nM and 620 nM; in experiment [7] it was 580 nM; in experiment [8], 510 nM; in experiment [10], 760 nM; in experiment [11], 370 nM; in experiment [12] it was 1290 nM. The dissociation constant Kd in experiment [13] came to 150 nM; in experiment [14], 220 nM; in experiment [15] it was 1830 nM; in [16], 6610 nM; in [17], 470 nM; in [18] it was 460 nM. Further, in experiment [9], the fold over the negative control (BSA) at 3 μM LigB12 came to 2.5 fold.
In the case of “LigB12, tag free (12th Ig-like domain of Leptospira immunoglobulin-like protein B) E1088A”, the percent of parent in experiment [19] was 90 % of WT.
By koff is commonly meant the rate constant with which the complex falls apart. One may read the kon as the rate constant with which the complex forms. Higher therefore signals faster complex formation. Regarding “FgαCC8 (C-terminal 23 amino acids of the fibrinogen α chain) (from UniProt P02671-2 622-644) (domain or fragment)”, in experiment [20], the Kd was 959 nM, the dissociation rate constant (koff) was 0.0357 s⁻¹ and the kon was determined as 37200 M⁻¹ s⁻¹.
Consider “GST tagged FgαCC8 (from UniProt P02671-2 622-644) (domain or fragment)”, for which the percent reduction of binding relative to WT in [21] was more than 30%; in experiment [22], 10 to 12%; in experiment [23] it was 51%; in [24] it was 46%.
Regarding “FgαCC3 (from UniProt P02671-2 526-644) (domain or fragment)”, in experiment [20], the equilibrium dissociation constant (Kd) worked out at 704 nM, the koff was found to be 0.0339 s⁻¹ and the kon was 48100 M⁻¹ s⁻¹.
“LigB12, tag free (12th Ig-like domain of Leptospira immunoglobulin-like protein B) (domain or fragment)”: the percent reduction of FgαCC binding to FXIII at high LigB12 concentrations (fit of the dose inhibition curve) in experiment [25] is 56.7%.
As for “LigB12, tag free (12th Ig-like domain of Leptospira immunoglobulin-like protein B) P1040C; F1053C”, the percent of parent in [19] was 96 % of WT.
On the same count and under the same terms, for “LigB12, tag free (12th Ig-like domain of Leptospira immunoglobulin-like protein B) D1066A” the value was 88 % of WT.
“FgαCC5 (from UniProt P02671-2 579-644) (domain or fragment)”: in experiment [20], the Kd stood at 1040 nM, the koff worked out at 0.0384 s⁻¹ and the on-rate (kon) is 36900 M⁻¹ s⁻¹.

B1: FgαCC8 (C-terminal 23 amino acids of the fibrinogen α chain), P02671-2 K620A (peptide)
chain: MADEAGSEADHEGTHSTARGHAK
With B1, the percent of parent in experiment [26] was 77 % of WT.

B2: FgαCC8 (C-terminal 23 amino acids of the fibrinogen α chain), P02671-2 K606A (peptide)
chain: GHAASRPVRGIHTSPLGKPSLSP
With B2, the percent of parent in experiment [26] was 78 % of WT.

B3: FgαCC8 (C-terminal 23 amino acids of the fibrinogen α chain), P02671-2 V610A (peptide)
chain: GHAKSRPARGIHTSPLGKPSLSP
Regarding B3, in experiment [26], the percent of parent is 99 % of WT.
